Laboratory results reported in publication PMC9932110.

Experiments:
Armc8β (mouse) [1] = test: SEC-MALS; Armc8β alone, dilution series from two purifications; molar mass at the peak against peak concentration, one-site and two-site models; monomer to dimer and higher
Armc8β (mouse) [2] = test: native gel or EMSA; blue native PAGE of Armc8β
Wdr26 (mouse) = Wdr26 (mouse) (UniProt Q8C6G8); test: ITC; ITC-200, 25 °C, 20 mM tricine pH 8.0, 150 or 200 mM NaCl, 1 mM TCEP; 50-150 μM in the syringe, 10 times lower in the cell; one-site model
Chain of Wdr26 (mouse) (Q8C6G8 other isoform, or with tags, fused parts or gaps): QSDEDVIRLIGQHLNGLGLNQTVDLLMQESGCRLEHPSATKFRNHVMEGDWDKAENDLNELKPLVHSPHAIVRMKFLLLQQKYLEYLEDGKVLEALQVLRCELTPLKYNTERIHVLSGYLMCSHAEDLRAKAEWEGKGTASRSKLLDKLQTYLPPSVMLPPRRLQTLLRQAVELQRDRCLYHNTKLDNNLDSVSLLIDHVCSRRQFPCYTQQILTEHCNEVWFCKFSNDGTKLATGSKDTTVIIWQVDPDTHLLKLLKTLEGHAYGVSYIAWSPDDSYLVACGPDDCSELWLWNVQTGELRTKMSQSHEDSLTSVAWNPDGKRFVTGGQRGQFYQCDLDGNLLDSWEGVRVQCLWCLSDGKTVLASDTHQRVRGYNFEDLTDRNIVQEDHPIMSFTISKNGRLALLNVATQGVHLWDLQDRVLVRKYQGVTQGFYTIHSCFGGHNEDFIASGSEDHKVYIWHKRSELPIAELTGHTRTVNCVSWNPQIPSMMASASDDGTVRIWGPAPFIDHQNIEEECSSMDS

muskelin (rat) = muskelin (rat) (UniProt Q99PV3); test: as above
Chain of muskelin (rat) (Q99PV3 whole entry): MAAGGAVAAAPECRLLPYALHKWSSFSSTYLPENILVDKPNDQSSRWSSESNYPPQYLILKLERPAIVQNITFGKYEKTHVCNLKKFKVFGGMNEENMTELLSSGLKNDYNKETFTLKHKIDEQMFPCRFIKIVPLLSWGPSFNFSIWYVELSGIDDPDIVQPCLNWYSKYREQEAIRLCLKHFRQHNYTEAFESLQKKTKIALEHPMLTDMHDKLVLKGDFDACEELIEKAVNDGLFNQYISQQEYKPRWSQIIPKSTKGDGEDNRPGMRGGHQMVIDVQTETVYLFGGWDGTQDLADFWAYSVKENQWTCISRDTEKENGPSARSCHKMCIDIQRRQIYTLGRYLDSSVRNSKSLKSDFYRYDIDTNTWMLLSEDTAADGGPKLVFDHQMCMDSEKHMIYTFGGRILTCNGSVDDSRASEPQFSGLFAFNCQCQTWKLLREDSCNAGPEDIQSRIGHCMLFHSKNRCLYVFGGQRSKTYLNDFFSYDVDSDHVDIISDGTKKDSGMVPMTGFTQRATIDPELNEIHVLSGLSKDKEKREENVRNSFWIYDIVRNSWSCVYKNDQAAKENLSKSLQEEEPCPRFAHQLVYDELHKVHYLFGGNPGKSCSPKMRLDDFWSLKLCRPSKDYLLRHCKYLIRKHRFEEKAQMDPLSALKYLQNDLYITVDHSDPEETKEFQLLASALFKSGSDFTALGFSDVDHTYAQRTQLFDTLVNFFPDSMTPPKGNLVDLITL

Armc8β (mouse) [3] = test: as above
Armc8β (mouse) [4] = test: SEC-MALS; Twa1, Armc8β and their mixture at low concentrations
[5] = biological target: Twa1–Armc8β complex (mouse) (UniProt Q9D7M1); test: SEC-MALS; Tβ complex, dilution series; molar mass at the peak against peak concentration, one-site model; Tβ heterodimer to higher order oligomers

Chain of Twa1 (Q9D7M1 whole entry): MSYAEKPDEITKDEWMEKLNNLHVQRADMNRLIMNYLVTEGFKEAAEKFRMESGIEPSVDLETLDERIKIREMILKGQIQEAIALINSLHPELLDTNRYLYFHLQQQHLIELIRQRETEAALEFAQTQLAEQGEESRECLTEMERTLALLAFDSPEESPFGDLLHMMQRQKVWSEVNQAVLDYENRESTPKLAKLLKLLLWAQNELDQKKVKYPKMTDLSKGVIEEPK

Armc8β (natural protein)
KD high (two-site binding model) (Armc8β (mouse) [1]): 1800 nM
KD low (two-site binding model) (Armc8β (mouse) [1]): > 40000 nM
Kd (Armc8β (mouse) [1]): 5100 nM
stoichiometry N (Armc8β (mouse) [1]): 1 to 2
stoichiometry N (Armc8β (mouse) [2]): 3

RanBP9–Twa1 complex (from UniProt P69566 1-653; Q9D7M1 1-228)
Kd (Wdr26 (mouse)): 3.4 nM
stoichiometry N (Wdr26 (mouse)): 0.95
Kd (muskelin (rat)): 1.7 nM
stoichiometry N (muskelin (rat)): 1
Kd (Armc8β (mouse) [3]): 8.1 nM

Twa1 (from UniProt Q9D7M1 1-228) (natural protein)
stoichiometry N (Armc8β (mouse) [4]): 1
Kd (Armc8β (mouse) [3]): 34.4 nM

Twa1–Armc8β complex (from UniProt Q9D7M1 1-228)
Kd [5]: 6200 nM
stoichiometry N [5]: 8.2
